# Laboratory results from PMC10651859, “Aptamer-based gold nanoparticle aggregates for ultrasensitive amplification-free detection of PSMA”.
# Key:
# [1] = target: PSMA on intact LNCaP SEVs (human? (LNCaP cells), UniProt Q04609 1-750); assay: AuNP aggregate disassembly (plasmon peak shift); intact SEVs; 1x PBS pH 7.4; 37 C for 30 min stated for the initial 50 pM hrPSMA screening; settings: protein: native; chain copies: 2; label: 13 nm gold nanoparticles on Rev1 and Rev2; Control 1-16 paired with Rev1, 17-30 with Rev2; 3' portion single-stranded; many copies per aggregate
# [2] = target: T1, hrPSMA (human recombinant Prostate Specific Membrane Antigen, Sinobiological) (human, UniProt Q04609 44-750); assay: AuNP aggregate disassembly (DLS); hrPSMA series; no significant trend; 1x PBS pH 7.4; 37 C for 30 min stated for the initial 50 pM hrPSMA screening; settings: protein: commercial; chain copies: 2; label: 13 nm gold nanoparticles on Rev1 and Rev2; Control 1-16 paired with Rev1, 17-30 with Rev2; 3' portion single-stranded; many copies per aggregate
# [3] = target: T1, hrPSMA (human recombinant Prostate …); assay: AuNP aggregate disassembly (DLS size and count rate, plasmon shift); size change significant above 50 pM, count rate from 500 fM; detection thresholds, not Kd; 1x PBS pH 7.4; 37 C for 30 min stated for the initial 50 pM hrPSMA screening; settings: protein: commercial; chain copies: 2; label: 13 nm gold nanoparticles on Rev1 and Rev2; aPSMA 1-16 paired with Rev1, 17-30 with Rev2; 3' aptamer portion single-stranded; many copies per aggregate
# T1 sequence (Q04609 44-750): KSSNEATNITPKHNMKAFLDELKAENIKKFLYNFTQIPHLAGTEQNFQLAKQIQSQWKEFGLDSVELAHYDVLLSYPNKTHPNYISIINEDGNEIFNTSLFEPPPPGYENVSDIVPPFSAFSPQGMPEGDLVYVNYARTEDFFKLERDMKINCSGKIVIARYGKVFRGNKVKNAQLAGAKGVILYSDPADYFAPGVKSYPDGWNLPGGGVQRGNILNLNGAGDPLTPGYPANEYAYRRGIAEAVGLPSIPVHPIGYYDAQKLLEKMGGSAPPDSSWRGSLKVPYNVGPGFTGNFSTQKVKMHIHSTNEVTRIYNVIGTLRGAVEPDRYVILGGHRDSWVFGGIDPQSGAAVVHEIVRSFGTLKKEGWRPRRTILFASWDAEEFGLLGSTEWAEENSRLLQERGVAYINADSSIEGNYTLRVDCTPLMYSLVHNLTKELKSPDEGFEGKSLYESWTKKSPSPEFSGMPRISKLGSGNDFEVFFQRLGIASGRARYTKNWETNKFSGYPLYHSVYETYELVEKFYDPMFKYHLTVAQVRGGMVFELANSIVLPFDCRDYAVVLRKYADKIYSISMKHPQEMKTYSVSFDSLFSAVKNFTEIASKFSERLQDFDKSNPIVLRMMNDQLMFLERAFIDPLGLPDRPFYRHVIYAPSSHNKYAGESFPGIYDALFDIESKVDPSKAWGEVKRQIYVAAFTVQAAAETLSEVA
# PSMA on intact LNCaP SEVs, sequence (Q04609 whole entry): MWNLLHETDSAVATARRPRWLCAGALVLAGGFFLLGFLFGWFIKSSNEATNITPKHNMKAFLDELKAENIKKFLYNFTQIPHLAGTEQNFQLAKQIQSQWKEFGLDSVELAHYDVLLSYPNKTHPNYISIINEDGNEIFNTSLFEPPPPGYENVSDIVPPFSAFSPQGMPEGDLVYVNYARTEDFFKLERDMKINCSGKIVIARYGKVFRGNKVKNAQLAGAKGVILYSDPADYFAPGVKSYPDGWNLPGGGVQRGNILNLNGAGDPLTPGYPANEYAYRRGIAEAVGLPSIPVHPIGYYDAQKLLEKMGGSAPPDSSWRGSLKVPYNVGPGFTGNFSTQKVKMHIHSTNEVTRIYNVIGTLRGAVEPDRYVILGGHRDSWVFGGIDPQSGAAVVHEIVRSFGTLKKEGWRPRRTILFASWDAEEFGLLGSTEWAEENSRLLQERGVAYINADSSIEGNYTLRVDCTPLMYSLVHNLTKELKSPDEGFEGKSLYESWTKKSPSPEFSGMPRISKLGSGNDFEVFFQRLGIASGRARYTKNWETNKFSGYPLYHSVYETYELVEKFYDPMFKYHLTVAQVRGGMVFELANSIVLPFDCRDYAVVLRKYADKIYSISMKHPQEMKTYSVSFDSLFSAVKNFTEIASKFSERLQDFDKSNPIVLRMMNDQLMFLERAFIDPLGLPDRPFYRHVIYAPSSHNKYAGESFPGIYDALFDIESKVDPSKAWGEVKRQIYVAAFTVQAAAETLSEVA
binder,measurement,setting,value
"Control:Rev1:Rev2 (C-AuNPs-Aggregate) (structured_DNA, Rev1 3' C3 thiol; Rev2 5' C6 thiol) DNA 1: CTGTGACTCATCTGTGAAGGGCGGCGTTTTATATGTTACCGTCTAAGTACTCTGTTCCGCGCCGTGTGTTG DNA 2: CACAGATGAGTCACAG DNA 3: AAAACGCCGCCCTT",binding result,[1],no binding
same,binding result,[2],no binding
"aPSMA:Rev1:Rev2 (aPSMA-AuNPs-Aggregate) (structured_DNA, Rev1 3' C3 thiol; Rev2 5' C6 thiol) DNA 1: CTGTGACTCATCTGTGAAGGGCGGCGTTTTCGCTTTTGCGTTTTGGGTCATCTGCTTACGATAGCAATGCT DNA 2: CACAGATGAGTCACAG DNA 3: AAAACGCCGCCCTT",binding result,[3],binds
